In the assay the target is NPY2 receptor on HEK293/hNPY2R cells (human) (UniProt P49146). Nature of the assay: cell-based or functional assay.
NPY2 receptor on HEK293/hNPY2R cells (human), sequence (P49146 whole entry): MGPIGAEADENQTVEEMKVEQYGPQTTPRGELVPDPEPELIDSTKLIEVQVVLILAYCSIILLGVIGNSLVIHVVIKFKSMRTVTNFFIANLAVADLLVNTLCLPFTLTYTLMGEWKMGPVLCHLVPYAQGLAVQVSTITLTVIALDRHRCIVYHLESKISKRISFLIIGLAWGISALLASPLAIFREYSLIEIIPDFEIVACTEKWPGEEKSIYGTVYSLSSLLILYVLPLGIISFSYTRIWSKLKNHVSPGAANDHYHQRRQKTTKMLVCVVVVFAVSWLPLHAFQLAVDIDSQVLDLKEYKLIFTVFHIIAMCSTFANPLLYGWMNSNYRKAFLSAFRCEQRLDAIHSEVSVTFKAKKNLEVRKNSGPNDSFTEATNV

PYY(3-36) wild-type (peptide; modification not given), sequence (chain, as listed by the source): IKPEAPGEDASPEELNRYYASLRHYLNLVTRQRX

Substance “PYY(3-36) wild-type (peptide; modification not given)” yielded an EC50 [nM], day 1, cAMP assay (inhibition of Forskolin stimulated cAMP accumulation in HEK293/hNPY2R cells) of 0.09 nM and an EC50 [nM], day2, cAMP assay (inhibition of Forskolin stimulated cAMP accumulation in HEK293/hNPY2R cells) of 0.1 nM.

In turn, “moPYY, Y2receptor specific modified analog of PYY(3-36): Ac-Ile-Lys-Pqa-Arg-His-Tyr-Leu-Asn-Trp-Val-Thr-Arg-Gln-(NMe)-Arg-Tyr-NH2 (peptide)” showed an EC50 [nM], day 1, cAMP assay (inhibition of Forskolin stimulated cAMP accumulation in HEK293/hNPY2R cells) of 0.14 nM and an EC50 [nM], day2, cAMP assay (inhibition of Forskolin stimulated cAMP accumulation in HEK293/hNPY2R cells) of 0.15 nM.
